Results on three molecules are retold here after patent US20210261606A1 (JSR, published 2021).

The labels stand for the following.
B1: mutant VHH antibody 2bS13-97H (VHH)
VHH: QVQLVESGGGLVQAGGSLRLSCAASGISFAINNVAWYRQAPGKQRDLVALIDKYDTGNIADSVKGRFSISRDNAKNTAYLQMNSLKPEDTAVYYCNHLGTWIRAGPYWGQGTQVTVSS
B2: mutant VHH antibody 2bS13-102H (VHH)
VHH: B1 VHH with H97A, I102H
notes: also called 2b513-102H
B3: mutant VHH antibody 2bS13-100H (VHH)
VHH: B1 VHH with H97A, T100H
notes: also called 2bS13-100H/PB (as ligand on the carrier)

For orientation: Kd means the concentration at which binding is half-saturated. High values mean a looser complex, low ones a tighter complex. As usually defined, the koff is the rate constant with which the complex falls apart. Broadly, the kon is a measure of how fast the partners come together. The low end stands for slow association, the high end for fast association.

Where a chain is given by its changes, count along the chain named.

The test concerns the target T1, trastuzumab Fab.
T1 construct: Made by papain digestion of trastuzumab (Herceptin); also called Fab of trastuzumab (Herceptin)
Briefly: Biacore SPR, trastuzumab Fab immobilized, VHH as analyte, pH 7.4. As to the method:
Those VHH antibodies were dispersed in HBS-EP (10 mM Hepes, 150 mM NaCl, 3 mM EDTA, and 0.005% Tween-20) to produce 12.5 to 150 nM VHH antibody solutions. The trastuzumab Fab prepared in Test Example 1 was immobilized on a Biacore sensor chip, and each VHH antibody solution was applied thereto. The measurements were performed under neutral conditions (pH 7.4). Curve fitting utilizing binding model was applied to association and dissociation behaviors, whereby evaluating the association rate constant (Kon), the dissociation rate constant (Koff), and the affinity (KD). Furthermore, this sensor chip was washed with an acidic eluent (10 mM Glycine-HCl+0.5M NaCl, pH 2.0) to measure a signal. From the obtained signal shape, the elution behavior of Ig by the acid was examined.
For orientation: Surface plasmon resonance follows binding to a sensor surface in real time, without labels.
In the case of B1, the dissociation constant Kd was 0.205 nM, the koff was determined as 0.004 s⁻¹ and the on-rate (kon) was 1.97e+07 M⁻¹ s⁻¹.
The corresponding values for B2 are 1.44 nM, 0.0227 s⁻¹ and 1.58e+07 M⁻¹ s⁻¹.
In the same order, the values of B3 are 0.376 nM, 0.0078 s⁻¹ and 2.08e+07 M⁻¹ s⁻¹.
